The values below come from paper PMC6629726, “Domain swapping of complementarity-determining region in nanobodies produced by Pichia pastoris” (AMB Express, 2019).

Assay [1] has as its target T1, Recombinant CD4 (cluster of differentiation 4) (Homo sapiens (species ), UniProt P01730).
T1 construct: CD4, recombinant, bought from R&D Systems; No catalogue number is printed; a bought soluble CD4 is probably the extracellular domain, possibly tagged (surmise); source: bought: R&D Systems
In words: SPR; BIACORE T-200; CD4 amine-coupled on CM5 (9695.5 RU); nanobodies 0.4 μM flowed over, 25 °C, HBS-EP pH 7.4, contact 180 s, 30 μL/min; binding level relative to CD4 N = 1; N = 3. Conditions: both partners purified. For orientation: SPR reads the build-up and loss of mass on a sensor chip optically.

For assay [2], the target named is T2, Recombinant GFP (green fluorescent protein) (UniProt P42212 = GFP).
T2 construct: green fluorescent protein, recombinant, bought from ProSpec; No catalogue number is printed; source: bought: ProSpec
In words: SPR; BIACORE T-200; GFP amine-coupled on CM5 (1189.8 RU); nanobodies 0.4 μM flowed over, 25 °C, HBS-EP pH 7.4, contact 180 s, 30 μL/min; binding level relative to GFP N = 1; N = 3. Conditions: both partners purified.

B1: chimeric nanobody in which all CDRs of GFP-nanobody had been replaced with those of CD4-nanobody (VHH)
VHH: QVQLVESGGALVQPGGSLRLSCAASGRTFNVMRWYRQAPGKEREWVAAVRWSSTGIYYTQYADSVKGRFTISRDDARNTVYLQMNSLKPEDTAVYYCAADTYNSNPARWDGYDFRGQGTQVTVSS
notes: scaffold before CDR1, as in the VHH of m1; CDR1, as in the VHH of m2; scaffold between CDR1 and CDR2, as in the VHH of m1; CDR2, as in the VHH of m2; scaffold between CDR2 and CDR3, as in the VHH of m1; CDR3, as in the VHH of m2; scaffold after CDR3, as in the VHH of m1; not shown: long peptide tag containing two FLAG-tags, C-terminal, kept
As for B1, in assay [1], the “relative binding response (CD4N to CD4 = 1)” value (from here on “relative binding response”) is 0.096.

B2: chimeric nanobody with CDR2 of GFP-nanobody replaced with that of CD4-nanobody (VHH)
VHH: QVQLVESGGALVQPGGSLRLSCAASGFPVNRYSMRWYRQAPGKEREWVAAVRWSSTGIYYTQYADSVKGRFTISRDDARNTVYLQMNSLKPEDTAVYYCNVNVGFEYWGQGTQVTVSS
notes: everything before CDR2 (scaffold, CDR1), as in the VHH of m1; CDR2, as in the VHH of m2; everything after CDR2 (scaffold, CDR3), as in the VHH of m1; also called cCD4 CDR2; not shown: long peptide tag containing two FLAG-tags, C-terminal, kept
For the molecule B2, the “relative binding response” value in assay [1] came out at 0.091.

B3: chimeric nanobody with CDR3 of GFP-nanobody replaced with that of CD4-nanobody (VHH)
VHH: QVQLVESGGALVQPGGSLRLSCAASGFPVNRYSMRWYRQAPGKEREWVAGMSSAGDRSSYEDSVKGRFTISRDDARNTVYLQMNSLKPEDTAVYYCAADTYNSNPARWDGYDFRGQGTQVTVSS
notes: everything before CDR3 (scaffold, CDR1, CDR2), as in the VHH of m1; CDR3, as in the VHH of m2; scaffold after CDR3, as in the VHH of m1; also called cCD4 CDR3; not shown: long peptide tag containing two FLAG-tags, C-terminal, kept
With B3, the binding result in assay [2] is “no binding (tested: 0.4 μM)”. Moreover, the “relative binding response” value in assay [1] was found to be 0.1.
